According to US6800606B1, “Monomeric analogues of human insulin” (Shanghai Institute of Biochemistry, priority 1999, dated 2004):

Assay: Determination of structural forms by Superdex G-75 column elution
Assay type: physicochemical
Conditions: for Peak profile / Retention Time: Superdex G-75 column (HR 10/30), phosphate buffered saline pH 7.4, flow rate 0.4 ml/min, sample 1.2 mg/ml; for Structural form (monomeric or polymeric): concluded from retention time and peak profile versus positive control [B28Lys, B29Pro] human insulin
Procedure: […] A preparation of each analogue is passed through Superdex G-75 column (HR 10/30). HI and [B28Lys, B29Pro] insulin (Lispro) are used as negative and positive controls respectively. Phosphate buffered saline pH 7.4 is used as an elution buffer and the flow rate fixed at 0.4 ml/min. The concentration of the sample preparation is 1.2 mg/ml.

Row | Substance | Peak profile | Retention Time | Structural form (monomeric or polymeric)
1 | [B12Thr]Hl: insulin analogue in which the 12th amino acid of the B-chain of human insulin (Val) is substituted by Thr | Symmetrical | 39.4 min | monomeric
2 | [B26Ala]Hl: human insulin analogue with replacement of Tyr by Ala in position B26 | Symmetrical | 38.9 min | monomeric
3 | [B16Ala]Hl: human insulin analogue with replacement of Tyr by Ala in position B16 | Symmetrical | 38.3 min | monomeric
4 | Hl: human insulin, used as negative control [reference compound] | Unsymmetrical | 36.4 min | 
5 | [B28Lys, B29Pro]Hl: commercial monomeric insulin with inversion of amino acids 28 and 29 of the B chain of human insulin; positive control [reference compound] | Symmetrical | 39.4 min | 
